For assay [1], the target named is T1, recombinant extracellular domain protein of cynomolgus monkey DLL3 (cyno.DLL3-ECD-His) (cynomolgus monkey, UniProt A0A2K5WSR1 27-490).
T1 construct: extracellular domain; Commercial protein; not shown: His tag
T1 sequence: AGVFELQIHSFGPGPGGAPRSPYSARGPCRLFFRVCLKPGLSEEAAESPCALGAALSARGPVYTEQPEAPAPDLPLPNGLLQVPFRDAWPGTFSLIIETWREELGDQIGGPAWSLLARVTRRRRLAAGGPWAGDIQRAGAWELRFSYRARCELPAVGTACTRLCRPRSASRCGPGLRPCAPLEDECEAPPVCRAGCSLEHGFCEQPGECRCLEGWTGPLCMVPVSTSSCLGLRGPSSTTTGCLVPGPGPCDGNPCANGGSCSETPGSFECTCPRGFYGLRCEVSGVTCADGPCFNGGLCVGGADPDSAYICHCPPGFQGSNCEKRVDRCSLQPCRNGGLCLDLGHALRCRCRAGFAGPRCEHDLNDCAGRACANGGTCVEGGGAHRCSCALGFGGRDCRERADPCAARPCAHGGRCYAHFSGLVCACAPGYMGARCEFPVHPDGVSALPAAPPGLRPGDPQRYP
Description: ELISA, coated cyno.DLL3-ECD-his 0.2 µg/mL, antibody titrated.

The target in assay [2] is T2, recombinant extracellular domain protein of rat DLL3 (Rat DLL3-His) (rat, UniProt O88671 33-494).
T2 construct: extracellular domain; Commercial protein; not shown: His tag
T2 sequence (looked up): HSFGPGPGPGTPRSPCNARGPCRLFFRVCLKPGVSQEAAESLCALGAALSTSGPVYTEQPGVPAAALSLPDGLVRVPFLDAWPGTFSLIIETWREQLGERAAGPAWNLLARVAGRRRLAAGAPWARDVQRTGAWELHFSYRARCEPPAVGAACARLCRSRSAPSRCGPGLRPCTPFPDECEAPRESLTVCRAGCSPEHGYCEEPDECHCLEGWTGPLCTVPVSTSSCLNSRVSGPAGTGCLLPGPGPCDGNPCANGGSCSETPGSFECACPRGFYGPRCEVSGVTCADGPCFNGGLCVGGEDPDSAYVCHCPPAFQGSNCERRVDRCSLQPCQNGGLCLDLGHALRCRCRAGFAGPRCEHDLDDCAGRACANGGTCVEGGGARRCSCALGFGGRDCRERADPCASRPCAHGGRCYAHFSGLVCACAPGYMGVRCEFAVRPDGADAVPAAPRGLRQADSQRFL
Description: ELISA, coated Rat DLL3-his 0.2 µg/mL, antibody titrated.

Assay [3] has as its target T3, recombinant extracellular domain protein of mouse DLL3 (Mouse DLL3-His) (mouse, UniProt O88516 33-490).
T3 construct: extracellular domain; Commercial protein; also called mDLL3; not shown: His tag
T3 sequence (looked up): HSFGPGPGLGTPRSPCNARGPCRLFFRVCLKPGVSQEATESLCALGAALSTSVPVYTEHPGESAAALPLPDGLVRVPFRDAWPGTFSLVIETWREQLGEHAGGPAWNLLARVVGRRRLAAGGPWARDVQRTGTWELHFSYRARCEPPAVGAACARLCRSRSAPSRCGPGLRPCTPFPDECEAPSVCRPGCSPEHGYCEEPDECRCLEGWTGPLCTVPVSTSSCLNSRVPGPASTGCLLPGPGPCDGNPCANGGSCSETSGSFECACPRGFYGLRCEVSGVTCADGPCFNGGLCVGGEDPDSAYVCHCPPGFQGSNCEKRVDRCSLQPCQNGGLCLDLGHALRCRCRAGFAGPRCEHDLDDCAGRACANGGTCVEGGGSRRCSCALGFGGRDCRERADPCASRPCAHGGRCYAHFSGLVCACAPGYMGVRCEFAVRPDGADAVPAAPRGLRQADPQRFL
As to the kind of experiment: ELISA, coated Mouse DLL3-His 0.2 µg/mL, antibody titrated.

For assay [4], the target named is canine canis DLL3-ECD-his antigen protein (canine). As to the kind of experiment: ELISA, coated Canis DLL3-his 0.2 µg/mL, antibody titrated.
The target of assay [5] is T4, recombinant extracellular domain protein of human DLL3 (h.DLL3-ECD-His) (human, UniProt Q9NYJ7 27-492).
T4 construct: extracellular domain; Commercial protein; also called human DLL3 antigen; not shown: His tag
T4 sequence (looked up): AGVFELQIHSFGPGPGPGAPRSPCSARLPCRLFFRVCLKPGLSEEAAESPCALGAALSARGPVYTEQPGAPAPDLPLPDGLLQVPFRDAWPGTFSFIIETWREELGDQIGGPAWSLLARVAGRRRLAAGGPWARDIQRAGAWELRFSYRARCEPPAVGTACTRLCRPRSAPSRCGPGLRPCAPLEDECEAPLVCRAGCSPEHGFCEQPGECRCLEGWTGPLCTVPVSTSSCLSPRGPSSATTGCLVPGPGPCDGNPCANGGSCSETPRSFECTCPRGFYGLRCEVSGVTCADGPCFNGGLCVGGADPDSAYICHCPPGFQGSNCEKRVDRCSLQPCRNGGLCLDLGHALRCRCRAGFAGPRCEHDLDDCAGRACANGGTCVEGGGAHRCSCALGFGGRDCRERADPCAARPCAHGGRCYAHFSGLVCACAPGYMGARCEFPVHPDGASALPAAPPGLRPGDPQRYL
As to the kind of experiment: ELISA, coated h.DLL3-ECD-his 0.2 µg/mL, antibody titrated.

Assay [6] deals with T5, human DLL4 on 293T-hDLL4 cells (human, UniProt Q9NR61 27-685).
T5 construct: whole, on cells; also called 293T-DLL4; HEK293T-hDLL4
Description: flow cytometry on 293T-hDLL4 cells, antibody 20 µg/mL.

Assay [7] addresses T1, recombinant extracellular domain …. Description: ELISA, coated cynoDLL3-ECD-his, murine antibody titrated.
Assay [8] concerns the target T4, recombinant extracellular domain …. Description: ELISA, coated hDLL3-ECD-his, murine antibody titrated.
Assay [9] concerns the target T6, human DLL1 on 293T-hDLL1 cells (human, UniProt O00548 18-723).
T6 construct: whole, on cells; also called 293T-DLL1; HEK293T-hDLL1
T6 sequence (looked up): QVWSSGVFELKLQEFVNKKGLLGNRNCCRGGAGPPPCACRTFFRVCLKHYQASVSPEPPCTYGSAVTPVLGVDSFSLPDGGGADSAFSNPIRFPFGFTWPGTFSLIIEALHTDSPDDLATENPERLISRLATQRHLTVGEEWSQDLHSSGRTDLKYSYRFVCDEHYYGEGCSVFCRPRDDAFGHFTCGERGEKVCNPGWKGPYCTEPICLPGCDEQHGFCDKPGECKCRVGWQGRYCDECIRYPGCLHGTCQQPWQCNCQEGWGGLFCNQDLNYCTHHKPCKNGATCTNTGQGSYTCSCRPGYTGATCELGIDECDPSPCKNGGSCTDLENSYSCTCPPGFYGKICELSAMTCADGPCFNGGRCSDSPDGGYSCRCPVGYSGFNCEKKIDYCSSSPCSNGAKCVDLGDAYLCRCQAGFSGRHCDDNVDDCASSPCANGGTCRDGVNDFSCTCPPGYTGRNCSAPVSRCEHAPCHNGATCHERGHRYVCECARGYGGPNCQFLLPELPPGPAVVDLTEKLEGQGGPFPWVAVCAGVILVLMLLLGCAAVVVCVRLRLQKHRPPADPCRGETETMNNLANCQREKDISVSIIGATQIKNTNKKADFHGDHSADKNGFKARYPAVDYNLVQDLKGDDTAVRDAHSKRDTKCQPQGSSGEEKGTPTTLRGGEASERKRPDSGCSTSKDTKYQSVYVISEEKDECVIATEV
As to the kind of experiment: flow cytometry on 293T-hDLL1 cells, antibody 20 µg/mL.

T5 sequence (Q9NR61 27-685): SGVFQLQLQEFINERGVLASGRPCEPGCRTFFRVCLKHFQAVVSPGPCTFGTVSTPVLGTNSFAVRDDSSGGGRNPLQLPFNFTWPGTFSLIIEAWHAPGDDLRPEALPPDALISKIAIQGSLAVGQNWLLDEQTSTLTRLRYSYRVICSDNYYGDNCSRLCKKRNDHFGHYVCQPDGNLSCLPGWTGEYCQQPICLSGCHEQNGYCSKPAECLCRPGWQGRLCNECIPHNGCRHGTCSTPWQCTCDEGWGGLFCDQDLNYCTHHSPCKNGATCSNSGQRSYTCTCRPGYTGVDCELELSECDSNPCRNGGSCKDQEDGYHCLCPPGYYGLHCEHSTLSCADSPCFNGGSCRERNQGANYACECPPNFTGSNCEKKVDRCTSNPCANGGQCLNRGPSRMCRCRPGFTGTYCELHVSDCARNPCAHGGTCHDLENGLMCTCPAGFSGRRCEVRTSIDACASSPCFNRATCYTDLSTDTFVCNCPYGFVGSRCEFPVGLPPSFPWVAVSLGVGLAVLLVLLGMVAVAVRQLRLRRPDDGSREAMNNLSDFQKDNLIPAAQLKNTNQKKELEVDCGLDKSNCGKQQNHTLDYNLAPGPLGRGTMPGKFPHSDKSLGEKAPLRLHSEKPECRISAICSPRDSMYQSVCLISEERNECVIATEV

B1: 6F11C10-Hz2 antibody (antibody, human IgG1, kappa, V domains shown)
VH: EVQLVQSGAEVKKPGASVKVSCKASGFTFTDYYMHWVRQAPGQSLEWMGLVYPYSGDISYAQKFQGRVTLTVDTSISTAYMELSRLRSDDTAVYYCARQGNYVNNAIDYWGQGTLVTVSS
VL: DIQMTQSPSSLSASVGDRVTITCKASQNVGNIIAWYQQKPGKSPKALIYLASYRYSGVPSRFSGSGSGTDFTLTISSLQPEDVATYFCQQYSDSPYTFGQGTKVEIKR
notes: Optimized humanized IgG1/kappa; also called 6FC11C0-Hz2; 6F11C10-Hz2-biotin
As for B1, the EC50 came to 10.8 ng/mL in assay [1]; 7.35 ng/mL in [2]; 30.1 ng/mL in assay [3]; 17.2 ng/mL in assay [4]; 8.23 ng/mL in assay [5].

B2: 55C11E4-Hz2 (antibody, human IgG1, kappa, V domains shown)
VH: EVQLVQSGAEVKKPGASVKVSCKASGYTFTDYYMNWVRQAPGQRLEWMGVINPYNGGTNYAQKFQGRVTLTVDKSASTAYMELSSLRSEDTAVYYCARDSNYVGLLDYWGQGTLVTVSS
VL: DIVLTQSPATLSLSPGERATLSCRASQSISNNLHWYQQKPGQAPRLLIKYASQSISGIPARFSGSGSGPDFTLTISSLEPEDFAVYFCQQSNSWPYTFGQGTKVEIKR
notes: Optimized humanized IgG1/kappa; also called 55C11E4-Hz2-biotin
On to B2, for which the 50% effective concentration (EC50) turned out to be 4.98 ng/mL in [1]; 3.67 ng/mL in [2]; 21.3 ng/mL in assay [3]; 12.9 ng/mL in assay [4]; 4.95 ng/mL in [5].

B3: murine antibody 6F11C10 (antibody, V domains shown)
VH: EVHLQQSGPVLVKPGPSVKISCKASGFTFTDYYMHWVKQSHGKSLEWIGLVYPYNGDISYNQKFKGKATLTVDTSSSTAYMELNSLTSEDSAVYYCARQGNYVNNAIDYWGQGTSVTVSS
VL: DIVMTQSQKFMSTSVGDRVSISCKASQNVGNIIAWYQQKPGQSPKALIYLASYRYSGVPDRFTGSGSGTDFTLTINNVQSEDLAEYFCQQYSDSPYTFGSGTKLEI
notes: Murine antibody purified from hybridoma supernatant
Regarding B3, the positive rate in [6] is 0.76%; in assay [9], 0.64%. Also, the EC50 was 19.5 ng/mL in assay [7] and 7.59 ng/mL in assay [8].

B4: murine antibody 55C11E4 (antibody, V domains shown)
VH: EVQLQQSGPVLVKPGASVKMSCKASGYTFTDYYMNWVKQSHGKSLEWIGVINPYNGGTNYSQKFKGKATLTVDKSSSTAYMELNSLTSEDSAVYYCARDSNYVGLLDYWGQGTSVTVSS
VL: DIVLTQSPATLSVTPGDSVSLSCRASQSISNNLHWYQQKSHESPRLLIKYASQSISGIPSRFSGSGSGPDFTLSIDSVETEDFGVYFCQQSNSWPYTFGGGTKLEIK
notes: as for B3
In the case of B4, the positive rate in assay [6] came out at 0.1%; in assay [9], 0.92%. Also, the figures for the EC50 in assay [7] and in [8] were 40.9 ng/mL and 56.7 ng/mL, respectively.

B5: murine antibody 87F7F10 (antibody, V domains shown)
VH: DVQLQESGPGLVKPSQSLSLTCSVTGYSITSDFYWNWIRQFPGNKLEWMGYITYDGSTNYDPSLKNRISITRDTSKNQFFLKLNSVTAEDTATYYCVYGDFNRHAMDYWGQGTSVTVSS
VL: DIVMSQSPSSLAVSAGEKVTMSCRSSQSLFNSRTRKNYLAWYQQKPGQPPKVLIYWASTRESGVPDRFTGSGSGTDFTLTISSVQAEDLAVYYCEQSFYLFTFGTGTKLEI
notes: as for B3
On to B5, for which the results for the positive rate in assay [6] and in assay [9] were 0.42% and 1.84%, respectively. The figures for the half-maximal effective concentration (EC50) in assay [7] and in assay [8] were 1.31 ng/mL and 1.68 ng/mL, respectively.

B6: murine antibody 59B10D3 (antibody, V domains shown)
VH: EVKLEESGGGLVQPGGSMKLSCAASGFTFSDAWMDWVRQSPEKGLEWIAEIRNKANNHATYYTESVKGRFTISRDDSKSSVYLQMISLRPEDTGIYYCTRNNYGSTWTYYAMDYWGQGTSVTVSS
VL: DIQMTQTSSSLSASLGDRVTINCRASQDISNYLNWYQQKPDGTVKLLIYYTSRLHSGVPSRFSGSGSGTDYSLTISNLEHEDIATYFCQQGYTLPLTFGAGTNLELK
notes: as for B3
For the molecule B6, the positive rate was 0.67% in [6] and 6.3% in assay [9]. For the same molecule, the EC50 in assay [7] worked out at 1.25 ng/mL; in [8], 1.3 ng/mL.

These data come from patent publication US20260166168A1 (MEDILINK THERAPEUTICS SUZHOU, published 2026).
